Experimental data as given in US20120252071A1 (ROCHE DIAGNOSTICS OPERATIONS, published 2012).
Numbering of substitutions follows the chain as printed. Names and notes keep the numbering of the source.

B1: T7 variant #8 [Cys125Ser, Cys347Ser, Cys492Ser, Cys515Ser, Cys723Ser, Cys839Ser] including His6-tag (enzyme)
chain: MNTINIAKNDFSDIELAAIPFNTLADHYGERLAREQLALEHESYEMGEARFRKMFERQLKAGEVADNAAAKPLITTLLPKMIARINDWFEEVKAKRGKRPTAFQFLQEIKPEAVAYITIKTTLASLTSADNTTVQAVASAIGRAIEDEARFGRIRDLEAKHFKKNVEEQLNKRVGHVYKKAFMQVVEADMLSKGLLGGEAWSSWHKEDSIHVGVRCIEMLIESTGMVSLHRQNAGVVGQDSETIELAPEYAEAIATRAGALAGISPMFQPCVVPPKPWTGITGGGYWANGRRPLALVRTHSKKALMRYEDVYMPEVYKAINIAQNTAWKINKKVLAVANVITKWKHSPVEDIPAIEREELPMKPEDIDMNPEALTAWKRAAAAVYRKDKARKSRRISLEFMLEQANKFANHKAIWFPYNMDWRGRVYAVSMFNPQGNDMTKGLLTLAKGKPIGKEGYYWLKIHGANCAGVDKVPFPERIKFIEENHENIMASAKSPLENTWWAEQDSPFCFLAFSFEYAGVQHHGLSYNCSLPLAFDGSCSGIQHFSAMLRDEVGGRAVNLLPSETVQDIYGIVAKKVNEILQADAINGTDNEVVTVTDENTGEISEKVKLGTKALAGQWLAYGVTRSVTKRSVMTLAYGSKEFGFRQQVLEDTIQPAIDSGKGLMFTQPNQAAGYMAKLIWESVSVTVVAAVEAMNWLKSAAKLLAAEVKDKKTGEILRKRSAVHWVTPDGFPVWQEYKKPIQTRLNLMFLGQFRLQPTINTNKDSEIDAHKQESGIAPNFVHSQDGSHLRKTVVWAHEKYGIESFALIHDSFGTIPADAANLFKAVRETMVDTYESSDVLADFYDQFADQLHESQLDKMPALPAKGNLNLRDILESDFAFA
notes: also called six-fold mutant; sextuple T7 variant; not shown: N-terminal His6-tag with linker
B2: T7 variant #33 [Cys125Ser, Cys347Ser, Cys492Ser, Cys515Ser, Cys723Ser, Cys839Ser, Val426Leu, Ala702Val, Val795Ile] (enzyme)
chain: B1 chain with V426L, A702V, V795I
notes: not shown: N-terminal His-tag
B3: T7 variant #32 [Cys723Ser, Val426Leu, Ala702Val, Val795Ile] (enzyme)
chain: B1 chain with S125C, S347C, V426L, S492C, S515C, A702V, V795I, S839C
notes: not shown: N-terminal His-tag
B4: T7 variant #36 [C125S, C347S, C492S, C515S, C723S, C839S, V426L, V650L, A702V, V795I] (enzyme)
chain: B1 chain with V426L, V650L, A702V, V795I
notes: not shown: N-terminal His-tag
B5: T7 variant #35 [Cys723Ser, Val426Leu, Val650Leu, Ala702Val, Val795Ile] (enzyme)
chain: B1 chain with S125C, S347C, V426L, S492C, S515C, V650L, A702V, V795I, S839C
notes: not shown: N-terminal His-tag
B6: T7 variant #26 [Cys723Ser, Ala702Val, Val795Ile] (enzyme)
chain: B1 chain with S125C, S347C, S492C, S515C, A702V, V795I, S839C
notes: not shown: N-terminal His-tag
B7: T7 variant #30 [Cys723Ser, Val426Leu, Val795Ile] (enzyme)
chain: B1 chain with S125C, S347C, V426L, S492C, S515C, V795I, S839C
notes: not shown: N-terminal His-tag
B8: T7 variant #28 [Cys723Ser, Val426Leu, Ala702Val] (enzyme)
chain: B1 chain with S125C, S347C, V426L, S492C, S515C, A702V, S839C
notes: not shown: N-terminal His-tag

What was measured:
[1] = molecular target: the molecule itself; assay: non-reducing SDS-PAGE after 16 h at 37 C without reducing agent (self-association by disulfide bonds)
Method: Samples of T7 variants were prepared according to a procedure described in Example 4. T7 RNA polymerase and variants thereof were analyzed by gel electrophoresis on polyacrylamide gels containing sodium dodecylsulphate (SDS). Gradient gels (NuPAGE, 4-12%, Bis-Tris Gel, Invitrogen) were used. Typically, protein samples (0.26 mg/ml, 18 μl) were mixed with 6 μl of NuPAGE LDS (Lithium dodecyl sulfate; LDS may also be substituted by sodium dodecyl sulfate) sample buffer, (4×, Invitrogen). After heating for 2 min at 85° C., samples (20 μl) were applied on the gel. The total amount of protein in a single lane of the gel was between 1 μg and 3 μg. Gels were run in SDS Running Buffer (1×MES, Invitrogen) at 200 V for 1 hour.
Further, samples of wild-type T7 and T7 variants (0.2 to 0.3 mg/ml each) were incubated at 37° C. for 16 hours in 25 mM Tris/HCl, pH 7.5 (adjusted at 25° C.), 0.1 mM EDTA, 100 mM NaCl. Aliquots were removed and applied on the SDS gels under reducing conditions or under non-reducing conditions. After incubation a sample of each treated preparation was subjected to SDS polyacrylamide gel electrophoresis as described in Example 5. Results are depicted in FIG. 2 (reducing reagents absent) and FIG. 3 (10 mM DTT added).
With reference to FIG. 2 (reducing reagents absent), and in reference to Examples 5, 6, and 7, a stained SDS polyacrylamide gel is shown. […]

[2] = molecular target: the molecule itself; assay: non-reducing SDS-PAGE (self-association by disulfide bonds)

Row | Protein | binding result [1] | binding result [2]
1 | B1 | no binding (tested: 2.9 µg of protein per lane) | 
2 | B2 |  | no binding
3 | B3 |  | no binding
4 | B4 |  | no binding
5 | B5 |  | no binding
6 | B6 |  | no binding
7 | B7 |  | no binding
8 | B8 |  | no binding
